Test results: article PMC8615523

Columns and labels:
Experiment in all cases: SEC; Ni-NTA eluates injected into a HiLoad 16/60 Superdex 200 pg column; elution with 30 mM Tris-HCl pH 7.4; absorbance at 280 nm
cpmMaroon196-186 = molecular target: cpmMaroon196-186
cpmCarmine185-186 = molecular target: cpmCarmine185-186
cpmMaroon185-186 = molecular target: cpmMaroon185-186

cpmMaroon196-186
percent monomeric (cpmMaroon196-186): 70%

cpmCarmine185-186
percent monomeric (cpmCarmine185-186): 60%

cpmMaroon185-186
stoichiometry N (cpmMaroon185-186): 2
